Consider one substance from US20250277045A1.

The assay concerns the target human BCMA recombinant antigen (human) (UniProt Q02223). The assay can be described thus: competition ELISA, coated human BCMA, antibody varied, then biotinylated human APRIL at 240 ng/mL, SA-HRP. (In general: ELISA stands for enzyme-linked immunosorbent assay.)

Sequence of human BCMA recombinant antigen (human) (Q02223 1-53): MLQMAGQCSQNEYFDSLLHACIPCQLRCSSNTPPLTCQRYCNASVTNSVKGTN

Take REGN5458 (bispecific antibody): the IC50 (read off the curve) was 3 nM.
